Laboratory results as given in paper doi:10.1101/2021.11.24.469940 (bioRxiv, 2021).

Target: the molecule itself
Experiment: cryo-EM structure

B1: mature wild-type S. cerevisiae PIM1 lacking the mitochondrial targeting sequence (Met182 – Asp1133) (enzyme, UniProt P36775 182-1133, looked up)
chain: MLALPIARRPLFPGFYKAVVISDERVMKAIKEMLDRQQPYIGAFMLKNSEEDTDVITDKNDVYDVGVLAQITSAFPSKDEKTGTETMTALLYPHRRIKIDELFPPNEEKEKSKEQAKDTDTETTVVEDANNPEDQESTSPATPKLEDIVVERIPDSELQHHKRVEATEEESEELDDIQEGEDINPTEFLKNYNVSLVNVLNLEDEPFDRKSPVINALTSEILKVFKEISQLNTMFREQIATFSASIQSATTNIFEEPARLADFAAAVSAGEEDELQDILSSLNIEHRLEKSLLVLKKELMNAELQNKISKDVETKIQKRQREYYLMEQLKGIKRELGIDDGRDKLIDTYKERIKSLKLPDSVQKIFDDEITKLSTLETSMSEFGVIRNYLDWLTSIPWGKHSKEQYSIPRAKKILDEDHYGMVDVKDRILEFIAVGKLLGKVDGKIICFVGPPGVGKTSIGKSIARALNRKFFRFSVGGMTDVAEIKGHRRTYIGALPGRVVQALKKCQTQNPLILIDEIDKIGHGGIHGDPSAALLEVLDPEQNNSFLDNYLDIPIDLSKVLFVCTANSLETIPRPLLDRMEVIELTGYVAEDKVKIAEQYLVPSAKKSAGLENSHVDMTEDAITALMKYYCRESGVRNLKKHIEKIYRKAALQVVKKLSIEDSPTSSADSKPKESVSSEEKAENNAKSSSEKTKDNNSEKTSDDIEALKTSEKINVSISQKNLKDYVGPPVYTTDRLYETTPPGVVMGLAWTNMGGCSLYVESVLEQPLHNCKHPTFERTGQLGDVMKESSRLAYSFAKMYLAQKFPENRFFEKASIHLHCPEGATPKDGPSAGVTMATSFLSLALNKSIDPTVAMTGELTLTGKVLRIGGLREKAVAAKRSGAKTIIFPKDNLNDWEELPDNVKEGLEPLAADWYNDIFQKLFKDVNTKEGNSVWKAEFEILDAKKEKD
stoichiometry N: 6
